From patent US20200407436A1 (published 2020)

Tests used:
[1] = target: T1, mature human TGF-beta 3 (human, UniProt P10600 301-412); experiment: cell-based or functional assay
T1 sequence: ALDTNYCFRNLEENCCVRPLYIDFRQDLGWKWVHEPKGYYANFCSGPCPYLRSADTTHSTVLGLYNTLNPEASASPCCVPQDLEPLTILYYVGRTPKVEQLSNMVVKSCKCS

[2] = target: endogenously produced TGF-beta in the RPTEC and HRF co-culture system; experiment: cell-based or functional assay
[3] = target: T2, mature human TGF-beta 1 (human, UniProt P01137 279-390); experiment: cell-based or functional assay
T2 sequence (P01137 279-390 limits assumed): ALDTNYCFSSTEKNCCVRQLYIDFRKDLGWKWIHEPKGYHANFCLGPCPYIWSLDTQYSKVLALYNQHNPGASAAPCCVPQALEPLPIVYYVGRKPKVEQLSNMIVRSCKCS

[4] = target: T3, mature human TGF-beta 2 (human, UniProt P61812 303-414); experiment: cell-based or functional assay
T3 sequence: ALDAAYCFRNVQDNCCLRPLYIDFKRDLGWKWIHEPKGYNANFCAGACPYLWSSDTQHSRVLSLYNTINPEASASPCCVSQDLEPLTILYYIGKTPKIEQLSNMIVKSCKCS

[5] = target: T1, mature human TGF-beta 3; experiment: SPR Biacore T200, human TGF-beta amine-coupled (~20 RU), E. coli derived Fab as analyte; heterogeneous fit, component 1 (KD1; believed occluded)
Experimental: (§1) Human TGF-β isoforms 1, 2, and 3 (Peprotech) were immobilised on CMS Series S chip via amine coupling chemistry on Flowcell 2, 3 and 4 (respectively) to a level of approximately 20 RU. HBS-EP buffer (10 mM HEPES pH 7.4, 0.15 M NaCl, 3 mM EDTA, 0.05% Surfactant P20, GE Healthcare) was used as the running buffer. […] The surface was regenerated by 2×10 μL injection of 10 mM HCl at a flowrate of 10 uL/min.
(§2) Background subtraction binding curves were analysed using the T200 evaluation software (version 1.0; GE Healthcare) following standard procedures. Kinetic parameters were determined using heterogeneous fitting algorithm with RI=0), as described in Example 3, and the values are provided in Table 4.

[6] = target: T2, mature human TGF-beta 1; experiment: as above
Experimental: as §1, §2

- Geo Mean IC50, Collagen I &III deposition, RPTEC mono-culture + TGFB3 [1]: 0.0812 µM
- Geo Mean IC50, Collagen V deposition, RPTEC mono-culture + TGFB3 [1]: 0.191 µM
- Geo Mean IC50, Fibronectin deposition, RPTEC mono-culture + TGFB3 [1]: 0.0821 µM
- IC50 (N = 1), Collagen I &III deposition, RPTEC mono-culture + TGFB3 [1]: 0.0643 µM
- IC50 (N = 1), Collagen V deposition, RPTEC mono-culture + TGFB3 [1]: 0.141 µM
- IC50 (N = 1), Fibronectin deposition, RPTEC mono-culture + TGFB3 [1]: 0.0515 µM
- IC50 (N = 2), Collagen I &III deposition, RPTEC mono-culture + TGFB3 [1]: 0.124 µM
- IC50 (N = 2), Collagen V deposition, RPTEC mono-culture + TGFB3 [1]: 0.336 µM
- IC50 (N = 2), Fibronectin deposition, RPTEC mono-culture + TGFB3 [1]: 0.14 µM
- IC50 (N = 3), Collagen I &III deposition, RPTEC mono-culture + TGFB3 [1]: 0.0672 µM
- IC50 (N = 3), Collagen V deposition, RPTEC mono-culture + TGFB3 [1]: 0.147 µM
- IC50 (N = 3), Fibronectin deposition, RPTEC mono-culture + TGFB3 [1]: 0.0768 µM
- Geo Mean IC50, Collagen I &III deposition, RPTEC and HRF co-culture [2]: 0.0328 µM
- Geo Mean IC50, Collagen V deposition, RPTEC and HRF co-culture [2]: 0.0563 µM
- Geo Mean IC50, Fibronectin deposition, RPTEC and HRF co-culture [2]: 0.0297 µM
- IC50 (N = 1), Collagen I &III deposition, RPTEC and HRF co-culture [2]: 0.0224 µM
- IC50 (N = 1), Collagen V deposition, RPTEC and HRF co-culture [2]: 0.0389 µM
- IC50 (N = 1), Fibronectin deposition, RPTEC and HRF co-culture [2]: 0.0326 µM
- IC50 (N = 2), Collagen I &III deposition, RPTEC and HRF co-culture [2]: 0.048 µM
- IC50 (N = 2), Collagen V deposition, RPTEC and HRF co-culture [2]: 0.0816 µM
- IC50 (N = 2), Fibronectin deposition, RPTEC and HRF co-culture [2]: 0.0271 µM
- Geo Mean IC50, Collagen I &III deposition, RPTEC mono-culture + TGFB1 [3]: 0.0112 µM
- Geo Mean IC50, Collagen V deposition, RPTEC mono-culture + TGFB1 [3]: 0.0437 µM
- Geo Mean IC50, Fibronectin deposition, RPTEC mono-culture + TGFB1 [3]: 0.0192 µM
- IC50 (N = 1), Collagen I &III deposition, RPTEC mono-culture + TGFB1 [3]: 0.0051 µM
- IC50 (N = 1), Collagen V deposition, RPTEC mono-culture + TGFB1 [3]: 0.0131 µM
- IC50 (N = 1), Fibronectin deposition, RPTEC mono-culture + TGFB1 [3]: 0.0126 µM
- IC50 (N = 2), Collagen I &III deposition, RPTEC mono-culture + TGFB1 [3]: 0.0138 µM
- IC50 (N = 2), Collagen V deposition, RPTEC mono-culture + TGFB1 [3]: 0.0921 µM
- IC50 (N = 2), Fibronectin deposition, RPTEC mono-culture + TGFB1 [3]: 0.0574 µM
- IC50 (N = 3), Collagen I &III deposition, RPTEC mono-culture + TGFB1 [3]: 0.0198 µM
- IC50 (N = 3), Collagen V deposition, RPTEC mono-culture + TGFB1 [3]: 0.0694 µM
- IC50 (N = 3), Fibronectin deposition, RPTEC mono-culture + TGFB1 [3]: 0.0098 µM
- Geo Mean IC50, Collagen I &III deposition, RPTEC mono-culture + TGFB2 [4]: 0.0003 µM
- Geo Mean IC50, Collagen V deposition, RPTEC mono-culture + TGFB2 [4]: 0.0031 µM
- Geo Mean IC50, Fibronectin deposition, RPTEC mono-culture + TGFB2 [4]: 0.0003 µM
- IC50 (N = 1), Collagen I &III deposition, RPTEC mono-culture + TGFB2 [4]: < 0.002 µM
- IC50 (N = 1), Collagen V deposition, RPTEC mono-culture + TGFB2 [4]: 0.00052 µM
- IC50 (N = 1), Fibronectin deposition, RPTEC mono-culture + TGFB2 [4]: 0.00016 µM
- IC50 (N = 2), Collagen I &III deposition, RPTEC mono-culture + TGFB2 [4]: 0.0006 µM
- IC50 (N = 2), Collagen V deposition, RPTEC mono-culture + TGFB2 [4]: 0.0105 µM
- IC50 (N = 2), Fibronectin deposition, RPTEC mono-culture + TGFB2 [4]: 0.00076 µM
- IC50 (N = 3), Collagen I &III deposition, RPTEC mono-culture + TGFB2 [4]: 0.00013 µM
- IC50 (N = 3), Collagen V deposition, RPTEC mono-culture + TGFB2 [4]: 0.00529 µM
- IC50 (N = 3), Fibronectin deposition, RPTEC mono-culture + TGFB2 [4]: 0.00022 µM
- Kd [5]: 0.0157 µM
- Kd [6]: 0.00948 µM
B1: humanised antibody 4856 Fab graft gL3gH13 (Fab, V domains shown)
VH: EVQLVESGGGLVKPGGSLRLSCAASGFSLSSYDMSWVRQAPGKGLEWIGIIYGGSGSTWYASWAKGRFTISRDSAKNSVYLQMNSLRAEDTAVYYCARGRDAGAGGSRNGYSLWGQGTLVTVSS
VL: AYDMTQSPSTLSASVGDRVTITCQASESIYSGLAWYQQKPGKAPKLLIYAASDLASGVPSRFSGSGSGTEYTLTISSLQPDDFATYYCQQTWTDGGIDNPFGGGTKVEIKR
notes: Human gamma-1 CH1 (G1m17) and human C-kappa (K1m3); also called 4856gL3gH13
